This assay has as its target recombinant L. infantum GDP-mannose pyrophosphorylase (LiGDP-MP) (Leishmania infantum). Nature of the assay: SEC; Superdex 200 10/300 GL, 50 mM Tris-HCl pH 7.5, 1 M NaCl, 1 mM DTT, 10% glycerol; concentrated Ni-NTA fractions loaded; sizes estimated from elution volumes against standard proteins.

The values that follow come from publication PMC8877407.

Broadly, the stoichiometry N is the number of molecules, sites or subunits per partner or assembly.

Values joined by “and” are separate entries in the source; they are usually repeats but may differ in a detail not shown here. Equal values may be shown once.

Consider “recombinant L. infantum GDP-mannose pyrophosphorylase (LiGDP-MP) (enzyme)”, for which the stoichiometry N was 6 and 3.
